No end group written: not given here.
How the values were obtained:
[1] = tested on: P815MUC1 cells; assay: Competition of phage binding by synthetic peptides; parameters: species or system mouse; conditions: for inhibition of WPY phage binding: increasing amounts of peptide (WPY 0.1, 10 and 500 μM)
Experimental: Synthetic peptides corresponding to the WPY and LPQ sequences of the previously selected phages (second and fourth sequences of Table 3) were synthetized (Neosystem, strasbourg, France). Increasing amounts of WPY peptide (0.1, 10 and 500 μM) and LPQ peptide (0.1, 10 and 1000 μM) or control peptides GHL and SGR (a non-selected phage from the PhD-C7C library) were diluted in a total volume of 1 ml of PBS-BSA1 % with 5.10^6 P815MUC1 cells and incubated for 1 hour at 4° C. under slight agitation. 1.10^10 WPY or LPQ phages in 200 μl of PBS-1% BSA were added and incubated with the cells and the peptide for two hours at 4° C. under slight agitation. Cells were then washed and bound phages eluted and titered following the same protocol as for the selections.

[2] = tested on: WiDr cells; assay: Phage binding specificity test (output/input ratio); parameters: species or system human; conditions: fifth pool, PhD-C7C library
[3] = molecular target: coxsackievirus-adenovirus receptor (CAR) on cells (UniProt P78310); assay: cell-based or functional assay
UniProt P78310, sequence (P78310 20-365 limits assumed): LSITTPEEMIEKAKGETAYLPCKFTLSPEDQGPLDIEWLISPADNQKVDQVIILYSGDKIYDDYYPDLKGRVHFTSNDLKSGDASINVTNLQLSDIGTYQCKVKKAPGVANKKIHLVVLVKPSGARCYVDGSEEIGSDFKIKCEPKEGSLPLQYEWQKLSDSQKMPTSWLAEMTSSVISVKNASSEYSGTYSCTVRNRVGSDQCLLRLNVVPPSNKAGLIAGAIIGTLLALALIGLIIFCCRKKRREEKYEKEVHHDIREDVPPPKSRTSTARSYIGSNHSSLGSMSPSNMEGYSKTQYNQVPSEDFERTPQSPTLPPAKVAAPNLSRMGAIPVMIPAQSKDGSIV

[4] = molecular target: MUC1 as expressed on P815MUC1 cells (P815 mouse mastocytoma cells transfected with MUC1 and Neomycin expression cassettes) (UniProt P15941); assay: phage titration on MUC1-transfected against control-transfected P815 cells (FIG. 4)
[5] = molecular target: MUC1 as expressed on P815MUC1 cells (P815 mouse mastocytoma cells transfected with MUC1 and Neomycin expression cassettes) (UniProt P15941); assay: phage titration on P815MUC1 cells (1.5e11 phages, 1e7 cells; FIG. 4); the same is said of MUC1-negative P815pAG60 cells
[6] = increasing amounts of peptide (LPQ 0.1, 10 and 1000 μM), 1.10^10 phages, 4° C.

Molecule | fold binding to P815MUC1 cells over P815pAG60 cells [4] [times] | fold higher affinity than the control phages (M13, GHL) [5] [fold] | also measured
CWPYPSHFC | – | – | inhibition of LPQ phage binding ([1]; 500 μM concentration of non-corresponding peptide): did not significatively inhibit; inhibition of WPY phage binding ([1]; 1.10^10 phages, 4° C.): inhibit in a dose-dependant manner
GHLIPLRQPSHQ [GHL used as control peptide and non-selected PhD12 control phage, reference compound] | – | – | inhibition of LPQ phage binding [1, 6]: did not significatively inhibit; inhibition of WPY phage binding ([1]; 1.10^10 phages, 4° C.): did not significatively inhibit
CLPSTRQTC [CLPSTRWTC] | – | – | binding to WiDr cells compared to the subtractor 293 cells [2]: specific binding
Adenovirus type 5 wild-type fiber protein, as carried by the Ad-fbwt virus (from UniProt P11818 1-581) | – | – | inhibition of infection of 293 and HeLa cells (β-galactosidase activity, % of control) by soluble knob at 10 µg/ml [3]: > 90%
LPQRAFWVPPIV | – | – | inhibition of LPQ phage binding [1, 6]: inhibit in a dose-dependant manner
LPQRAFWVPPIV (not fully specified (C-terminus)) [LPQ phage (M13 phage of the PhD-12 library displaying …)] | > 3 | > 100 | –
WPVRPWMPGPVV (not fully specified (C-terminus)) [WPV phage (M13 phage of the PhD-12 library displaying …)] | > 3 | > 100 | –
WPTSPWLEREPA (not fully specified (C-terminus)) | > 3 | > 100 | –
WPTSPWSSRDWS (not fully specified (C-terminus)) | > 3 | > 100 | –
MPLPQPSHLPLL (not fully specified (C-terminus)) [MPL phage (M13 phage of the PhD-12 library displaying …)] | > 3 | > 100 | –
